Assay results from the supplement of paper PMC10567573.

B1: RSAD1 (parent)
chain: YCNFNKYIPRRLEEAAMQKCLVTE
B2: KRT13 (parent)
chain: YGGGLGGGFGGGFAGGFVDFGACD
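Note: lentivirally expressed fusions sorted by FACS into six bins by GFP to DsRed ratio, PSI derived from sequencing read proportions per bin multiplied by bin number.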

Variants of: B1
Assay: protein stability index of a GFP-peptide fusion (GPS, HEK-293T) (PSI 1-6); higher = more stable
Conditions: c terminus: a fixed tail appended
Variant C20S has a protein stability index of 2.1. In the case of E14S, the protein stability index is reported as 2.5. With A16K the protein stability index was 3.53. With A16F the protein stability index was 1.74. With C2A the protein stability index was 2.33. V22Y gave a protein stability index of 1.41. Work on Q18Y yielded a protein stability index of 2.88. In the case of A15T, the protein stability index is reported as 3.34. For R10Y, the protein stability index was 2.26.

Variants of: B2
Assay: as above
Conditions: c terminus: a fixed tail appended
For Y1A, the protein stability index was 2.87. Y1C gave a protein stability index of 1.52. With Y1D the protein stability index was 3.61. Y1E showed a protein stability index of 3.3. Y1F showed a protein stability index of 1.16. Work on Y1G yielded a protein stability index of 3.48. Y1H gave a protein stability index of 2.9. Variant Y1I has a protein stability index of 2.54. With Y1K the protein stability index was 2.68. Variant Y1L has a protein stability index of 1.92. For Y1M, the protein stability index was 2.43. With Y1N the protein stability index was 3.65. With Y1P the protein stability index was 2.75. In the case of Y1Q, the protein stability index is reported as 3.12. In the case of Y1R, the protein stability index is reported as 2.76. Variant Y1S has a protein stability index of 3.23. For Y1T, the protein stability index was 2.73. Work on Y1V yielded a protein stability index of 3.53. Y1W showed a protein stability index of 2.08. G2D showed a protein stability index of 2.67. In the case of G2E, the protein stability index is reported as 2.66. With G2F the protein stability index was 2.91. For G2I, the protein stability index was 3.26. Work on G2K yielded a protein stability index of 1.86. In the case of G2L, the protein stability index is reported as 3.13. Work on G2N yielded a protein stability index of 2.23. G2R showed a protein stability index of 2.33. With G2S the protein stability index was 1.54. G2V showed a protein stability index of 3.25. G2W gave a protein stability index of 2.56. In the case of G2Y, the protein stability index is reported as 1.63. For G3A, the protein stability index was 1.77. Variant G3C has a protein stability index of 1.87. Variant G3D has a protein stability index of 1.5. G3E gave a protein stability index of 2.33. For G3F, the protein stability index was 1.88. Variant G3H has a protein stability index of 1.9. Work on G3I yielded a protein stability index of 2.29. For G3L, the protein stability index was 1.58. With G3M the protein stability index was 2.51. Variant G3N has a protein stability index of 2.2. Variant G3P has a protein stability index of 2.03. G3Q showed a protein stability index of 2.5. G3R showed a protein stability index of 2.27. G3S gave a protein stability index of 1.84. In the case of G3T, the protein stability index is reported as 2.3. Variant G3V has a protein stability index of 2.48. Work on G3W yielded a protein stability index of 1.18. Variant G3Y has a protein stability index of 1.21. With G4A the protein stability index was 1.89. For G4D, the protein stability index was 2.52. In the case of G4E, the protein stability index is reported as 1.95. G4F showed a protein stability index of 1.7. G4H showed a protein stability index of 1.6. Work on G4I yielded a protein stability index of 1.93. In the case of G4K, the protein stability index is reported as 2.84. G4L showed a protein stability index of 2.14. For G4M, the protein stability index was 1.21. Work on G4N yielded a protein stability index of 1.8. For G4P, the protein stability index was 2.03. For G4Q, the protein stability index was 1.68. In the case of G4R, the protein stability index is reported as 2.02. For G4S, the protein stability index was 2.42. Variant G4T has a protein stability index of 1.87. For G4V, the protein stability index was 1.55. G4W gave a protein stability index of 2.33. Work on G4Y yielded a protein stability index of 2.38. In the case of L5A, the protein stability index is reported as 1.64. For L5C, the protein stability index was 1. Variant L5D has a protein stability index of 2.04. L5E gave a protein stability index of 2.51. In the case of L5F, the protein stability index is reported as 1.38. L5G showed a protein stability index of 1.87. With L5H the protein stability index was 1.8. L5I showed a protein stability index of 2.27. With L5K the protein stability index was 1.51. In the case of L5M, the protein stability index is reported as 1.93. Work on L5N yielded a protein stability index of 1.84. For L5P, the protein stability index was 1.95. Work on L5Q yielded a protein stability index of 2.02. Variant L5R has a protein stability index of 2.62. In the case of L5S, the protein stability index is reported as 1.36. Work on L5T yielded a protein stability index of 2.22. For L5V, the protein stability index was 2.73. For L5W, the protein stability index was 3.09. Work on L5Y yielded a protein stability index of 2.79. In the case of G6A, the protein stability index is reported as 2.4. G6C gave a protein stability index of 2.27. G6D gave a protein stability index of 1.89. G6E showed a protein stability index of 2.26. Work on G6F yielded a protein stability index of 1.68. G6H showed a protein stability index of 1.79. Work on G6I yielded a protein stability index of 3.11. In the case of G6K, the protein stability index is reported as 1.67. G6L showed a protein stability index of 2.86. G6M showed a protein stability index of 1.81. With G6N the protein stability index was 1.65. Variant G6P has a protein stability index of 3.58. Work on G6Q yielded a protein stability index of 2.38. Variant G6R has a protein stability index of 1.54. Work on G6S yielded a protein stability index of 1.4. In the case of G6T, the protein stability index is reported as 2.19. With G6V the protein stability index was 2.12. With G6W the protein stability index was 3.1. G6Y gave a protein stability index of 1. With G7A the protein stability index was 2.41. With G7C the protein stability index was 3.15. Variant G7D has a protein stability index of 1.89. Variant G7E has a protein stability index of 1.91. G7F gave a protein stability index of 3.32. G7H gave a protein stability index of 1.92. G7I showed a protein stability index of 1.9. With G7L the protein stability index was 1.81. Variant G7M has a protein stability index of 2.46. With G7N the protein stability index was 1.31. G7P gave a protein stability index of 1.84. G7Q showed a protein stability index of 1.23. Work on G7R yielded a protein stability index of 1.74. With G7S the protein stability index was 1.48. Variant G7T has a protein stability index of 1.49. In the case of G7Y, the protein stability index is reported as 2.36. Work on G8A yielded a protein stability index of 1.93. Work on G8C yielded a protein stability index of 1.26. For G8D, the protein stability index was 2.41. Variant G8E has a protein stability index of 1.72. For G8H, the protein stability index was 3. G8I showed a protein stability index of 2.44. For G8K, the protein stability index was 1.24. G8N gave a protein stability index of 1.78. In the case of G8P, the protein stability index is reported as 1.75. G8Q showed a protein stability index of 1.23. In the case of G8R, the protein stability index is reported as 1.67. With G8S the protein stability index was 2.72. Variant G8T has a protein stability index of 1.77. For G8V, the protein stability index was 2.48. For G8W, the protein stability index was 3.32. In the case of F9A, the protein stability index is reported as 1.68. In the case of F9C, the protein stability index is reported as 1.79. Variant F9D has a protein stability index of 2.46. F9E gave a protein stability index of 2.65. F9G gave a protein stability index of 1.87. F9H gave a protein stability index of 2.5. Work on F9I yielded a protein stability index of 1.49. F9K showed a protein stability index of 1.64. Work on F9L yielded a protein stability index of 1.76. Work on F9M yielded a protein stability index of 1.45. Variant F9N has a protein stability index of 2. F9P showed a protein stability index of 1.75. In the case of F9Q, the protein stability index is reported as 2.1. Work on F9R yielded a protein stability index of 1.69. F9S gave a protein stability index of 1.85. Variant F9T has a protein stability index of 2.28. F9V showed a protein stability index of 1.94. Work on F9Y yielded a protein stability index of 1.69. In the case of G10A, the protein stability index is reported as 2.01. With G10C the protein stability index was 4. With G10D the protein stability index was 2.03. With G10E the protein stability index was 1.96.
